Assay results published in publication PMC4049585, “Identification and Characterization of a Ginsenoside-Transforming β-Glucosidase from Pseudonocardia sp. Gsoil 1536 and Its Application for Enhanced Production of Minor Ginsenoside Rg2(S)” (PLoS ONE, 2014).

Experiments:
[1] = tested on: T1, O=[N+]([O-])c1ccc(O[C@@H]2O[C@H](CO)[C@@H](O)[C@H](O)[C@H]2O)cc1; test: purified protein; type: biochemical, Pseudonocardia sp. Gsoil 1536; settings: pNPG 1-20 mM, standard assay 50 mM sodium phosphate pH 7.0, 37°C
T1 construct: 743 residues, 78,975 Da predicted; GST fusion (pGEX 4T-1) from E. coli BL21(DE3), 105 kDa with GST; forward primer encodes IDPVDLTL after GS

[2] = tested on: T2, CC(C)=CCC[C@](C)(O[C@@H]1O[C@H](CO)[C@@H](O)[C@H](O)[C@H]1O)[C@H]1CC[C@]2(C)[C@@H]1[C@H](O)C[C@@H]1[C@@]3(C)CC[C@H](O)C(C)(C)[C@@H]3[C@@H](O[C@@H]3O[C@H](CO)[C@@H](O)[C@H](O)[C@H]3O[C@@H]3O[C@@H](C)[C@H](O)[C@@H](O)[C@H]3O)C[C@]12C; test: initial velocity, Re conversion, Cleland kinetics program; type: biochemical, Pseudonocardia sp. Gsoil 1536; settings: Re 0.2-5.0 mM; Re substrate lot purity 87.6%; temperature and buffer of kinetics not given
T2 construct: 743 residues, 78,975 Da predicted; GST fusion (pGEX 4T-1) from E. coli BL21(DE3), 105 kDa with GST; forward primer encodes IDPVDLTL after GS
Excerpt: initial velocity, Re conversion, Cleland kinetics program on BglPC28

Substance: BglPC28 (Pseudonocardia sp. Gsoil1536)
- Km [1]: 6.36 ± 1.10 mM
- Vmax [1]: 40 µmol/min/mg
- kcat [1]: 52.7 ± 3.4 s⁻¹
- kcat/Km [1]: 8630 ± 2020 M⁻¹ s⁻¹
- Km [2]: 1.42 ± 0.13 mM
- Vmax [2]: 5.62 µmol/min/mg
- kcat [2]: 7.4 ± 0.28 s⁻¹
- kcat/Km [2]: 5280 ± 690 M⁻¹ s⁻¹
